Measurements from the Human Domainome abundance scans (Beltran et al. 2025).
± gives the uncertainty stated by the source.

B1: Gamma-crystallin D, residues 90 to 170; numbered along this chain, P07320 (parent)
chain: IRLYEREDYRGQMIEFTEDCSCLQDRFRFNEIHSLNVLEGSWVLYELSNYRGRQYLLMPGDYRRYQDWGATNARVGSLRRV

Variants of: B1
Test: abundance fitness (aPCA) (normalised: wild type 0, dead -1); higher = more abundant; growth selection in yeast, the domain comes from the species named
Settings: Homo sapiens
For E5D, the abundance fitness was -0.013 ± 0.12.
E5T showed an abundance fitness of -0.146 ± 0.12.
With E5N the abundance fitness was -0.096 ± 0.31.
Variant E7V has an abundance fitness of -0.04 ± 0.1.
D67H showed an abundance fitness of -0.034 ± 0.24.
D67C showed an abundance fitness of -0.148 ± 0.35.
In the case of Y45P, the abundance fitness is reported as -0.553 ± 0.15.
Y45N showed an abundance fitness of -0.507 ± 0.29.
E18D showed an abundance fitness of -0.08 ± 0.15.
Variant E18I has an abundance fitness of -0.074 ± 0.1.
E18S gave an abundance fitness of 0.04 ± 0.1.
In the case of R28F, the abundance fitness is reported as -0.203 ± 0.23.
Work on R28D yielded an abundance fitness of 0.128 ± 0.22.
R28Q gave an abundance fitness of 0.1 ± 0.11.
With W68V the abundance fitness was 0.087 ± 0.094.
Work on W68R yielded an abundance fitness of 0.093 ± 0.054.
M13I showed an abundance fitness of -0.021 ± 0.15.
With M13C the abundance fitness was -0.176 ± 0.13.
M13A gave an abundance fitness of 0.08 ± 0.1.
Work on M13N yielded an abundance fitness of -0.042 ± 0.18.
H33I gave an abundance fitness of 0.07 ± 0.13.
H33D showed an abundance fitness of 0.011 ± 0.11.
With L56V the abundance fitness was -0.027 ± 0.071.
For L56F, the abundance fitness was 0.093 ± 0.17.
Work on L56E yielded an abundance fitness of -0.024 ± 0.13.
In the case of L56C, the abundance fitness is reported as 0.048 ± 0.12.
Work on L56M yielded an abundance fitness of 0.279 ± 0.12.
In the case of N36D, the abundance fitness is reported as -0.051 ± 0.23.
N36Y gave an abundance fitness of -0.086 ± 0.22.
In the case of N36R, the abundance fitness is reported as 0.006 ± 0.086.
In the case of N36Q, the abundance fitness is reported as 0.051 ± 0.098.
L35F gave an abundance fitness of 0.148 ± 0.1.
L35N gave an abundance fitness of -0.156 ± 0.17.
E31G showed an abundance fitness of 0.035 ± 0.067.
In the case of E31C, the abundance fitness is reported as -0.192 ± 0.15.
Variant E31N has an abundance fitness of 0.005 ± 0.32.
Variant E31V has an abundance fitness of -0.105 ± 0.082.
In the case of D8E, the abundance fitness is reported as 0.015 ± 0.12.
Variant D8F has an abundance fitness of 0.085 ± 0.2.
In the case of D8Q, the abundance fitness is reported as 0.097 ± 0.16.
For D8R, the abundance fitness was 0.025 ± 0.072.
D8M gave an abundance fitness of -0.006 ± 0.13.
Work on D8N yielded an abundance fitness of -0.342 ± 0.18.
For D8L, the abundance fitness was 0.025 ± 0.092.
In the case of F27D, the abundance fitness is reported as 0.012 ± 0.16.
With F27H the abundance fitness was -0.343 ± 0.13.
For V43T, the abundance fitness was -0.113 ± 0.17.
Work on G69D yielded an abundance fitness of -0.105 ± 0.17.
Work on G69W yielded an abundance fitness of 0.045 ± 0.078.
In the case of G69F, the abundance fitness is reported as -0.008 ± 0.17.
G52T showed an abundance fitness of -1.07 ± 0.3.
With G52R the abundance fitness was -0.51 ± 0.093.
G52C showed an abundance fitness of -0.421 ± 0.12.
D61G showed an abundance fitness of 0.004 ± 0.058.
D61H showed an abundance fitness of -0.25 ± 0.36.
In the case of D61K, the abundance fitness is reported as -0.096 ± 0.17.
For D61F, the abundance fitness was -0.094 ± 0.15.
Variant D61T has an abundance fitness of -0.024 ± 0.18.
Work on G60E yielded an abundance fitness of 0.155 ± 0.09.
With G60Y the abundance fitness was -0.176 ± 0.16.
G60Q gave an abundance fitness of 0.001 ± 0.14.
Work on F29R yielded an abundance fitness of 0.117 ± 0.11.
In the case of F29E, the abundance fitness is reported as 0.05 ± 0.1.
In the case of M58T, the abundance fitness is reported as 0.125 ± 0.13.
Variant M58Q has an abundance fitness of 0.066 ± 0.12.
For G76N, the abundance fitness was -0.125 ± 0.2.
G76H showed an abundance fitness of 0.11 ± 0.16.
In the case of Y4C, the abundance fitness is reported as 0.222 ± 0.35.
In the case of I14D, the abundance fitness is reported as 0.08 ± 0.18.
I14Y showed an abundance fitness of -0.018 ± 0.16.
Variant I14T has an abundance fitness of -0.018 ± 0.11.
For V75T, the abundance fitness was -0.206 ± 0.13.
Work on V75P yielded an abundance fitness of -0.011 ± 0.087.
In the case of V75C, the abundance fitness is reported as -0.065 ± 0.093.
For I1W, the abundance fitness was -1 ± 0.34.
With N49A the abundance fitness was -0.109 ± 0.076.
N49I gave an abundance fitness of -0.485 ± 0.21.
In the case of S48D, the abundance fitness is reported as 0.138 ± 0.12.
With S48G the abundance fitness was -0.049 ± 0.065.
In the case of S48C, the abundance fitness is reported as 0.009 ± 0.1.
S41M showed an abundance fitness of -0.285 ± 0.11.
With S41T the abundance fitness was -0.09 ± 0.088.
I32R gave an abundance fitness of -0.062 ± 0.085.
Work on I32L yielded an abundance fitness of 0.119 ± 0.093.
Variant I32A has an abundance fitness of -0.11 ± 0.08.
I32C showed an abundance fitness of 0.032 ± 0.12.
In the case of I32Q, the abundance fitness is reported as -0.251 ± 0.19.
In the case of Q54M, the abundance fitness is reported as -0.261 ± 0.11.
For Q54R, the abundance fitness was -0.066 ± 0.12.
Work on Q54T yielded an abundance fitness of 0.035 ± 0.11.
With Q54Y the abundance fitness was -0.119 ± 0.26.
Work on E39P yielded an abundance fitness of -0.78 ± 0.18.
With E39D the abundance fitness was -0.039 ± 0.17.
Work on R26C yielded an abundance fitness of 0.091 ± 0.12.
Variant R26V has an abundance fitness of -0.006 ± 0.054.
Variant T17G has an abundance fitness of 0.016 ± 0.064.
Work on T17Q yielded an abundance fitness of -0.11 ± 0.11.
In the case of Y9I, the abundance fitness is reported as 0.112 ± 0.2.
Variant Y9D has an abundance fitness of -0.076 ± 0.14.
Y9F gave an abundance fitness of 0.104 ± 0.19.
For E15W, the abundance fitness was -0.093 ± 0.074.
For E15K, the abundance fitness was 0.204 ± 0.17.
For E15I, the abundance fitness was -0.034 ± 0.23.
E15F showed an abundance fitness of 0.015 ± 0.19.
Work on L3R yielded an abundance fitness of -1.02 ± 0.38.
L3F showed an abundance fitness of -0.012 ± 0.43.
L3S gave an abundance fitness of 0.122 ± 0.21.
L3P gave an abundance fitness of -1 ± 0.46.
Work on R10N yielded an abundance fitness of 0.077 ± 0.24.
Work on R10W yielded an abundance fitness of -0.027 ± 0.1.
R10T showed an abundance fitness of -0.034 ± 0.1.
L38P gave an abundance fitness of 0.012 ± 0.078.
With L38K the abundance fitness was -0.141 ± 0.22.
Variant L38V has an abundance fitness of -0.045 ± 0.083.
Variant W42D has an abundance fitness of -1 ± 0.47.
W42E gave an abundance fitness of -1.07 ± 0.25.
With W42Y the abundance fitness was 0.166 ± 0.13.
In the case of W42A, the abundance fitness is reported as -0.554 ± 0.1.
For R6Q, the abundance fitness was -0.066 ± 0.14.
R6M showed an abundance fitness of -0.042 ± 0.18.
Work on S21A yielded an abundance fitness of -0.023 ± 0.1.
In the case of S21K, the abundance fitness is reported as -0.045 ± 0.12.
Q66C showed an abundance fitness of -0.067 ± 0.14.
S77A showed an abundance fitness of -0.168 ± 0.087.
With S77D the abundance fitness was -1.03 ± 0.31.
With S77L the abundance fitness was -0.819 ± 0.14.
In the case of S77V, the abundance fitness is reported as -1.13 ± 0.26.
In the case of S77G, the abundance fitness is reported as -0.367 ± 0.072.
Variant S77E has an abundance fitness of -0.868 ± 0.31.
In the case of R51I, the abundance fitness is reported as -0.321 ± 0.21.
R51V gave an abundance fitness of 0.025 ± 0.082.
In the case of R51P, the abundance fitness is reported as -0.951 ± 0.19.
R51K gave an abundance fitness of -0.037 ± 0.17.
R74D showed an abundance fitness of 0.018 ± 0.21.
In the case of R74C, the abundance fitness is reported as 0.012 ± 0.16.
Y65D gave an abundance fitness of 0.044 ± 0.11.
In the case of Y65F, the abundance fitness is reported as -0.174 ± 0.15.
Variant Y65M has an abundance fitness of 0.089 ± 0.17.
With C22K the abundance fitness was -0.134 ± 0.13.
Work on C22M yielded an abundance fitness of 0.091 ± 0.18.
R53C gave an abundance fitness of -0.137 ± 0.15.
With V81A the abundance fitness was -0.093 ± 0.43.
Work on D25R yielded an abundance fitness of -0.045 ± 0.093.
Variant D25Y has an abundance fitness of -0.17 ± 0.12.
In the case of D25W, the abundance fitness is reported as -0.087 ± 0.1.
Variant D25M has an abundance fitness of -0.149 ± 0.2.
In the case of Y55R, the abundance fitness is reported as 0.014 ± 0.081.
In the case of Y55I, the abundance fitness is reported as 0.298 ± 0.22.
For Y55E, the abundance fitness was 0.241 ± 0.1.
With T71Y the abundance fitness was -0.201 ± 0.25.
With T71I the abundance fitness was 0.043 ± 0.17.
Y62S showed an abundance fitness of 0.016 ± 0.058.
Work on Y62R yielded an abundance fitness of 0.229 ± 0.06.
In the case of Y62Q, the abundance fitness is reported as -0.301 ± 0.14.
With Y62T the abundance fitness was -0.251 ± 0.093.
In the case of Y62C, the abundance fitness is reported as 0.264 ± 0.15.
In the case of N30L, the abundance fitness is reported as -0.122 ± 0.084.
Variant N30V has an abundance fitness of 0.143 ± 0.045.
In the case of Q24D, the abundance fitness is reported as -0.051 ± 0.17.
Q24H gave an abundance fitness of 0.08 ± 0.18.
Work on Q24M yielded an abundance fitness of 0.167 ± 0.15.
Variant Q24A has an abundance fitness of -0.021 ± 0.086.
L78K gave an abundance fitness of -1.12 ± 0.45.
In the case of L78R, the abundance fitness is reported as -0.893 ± 0.11.
For P59D, the abundance fitness was 0.14 ± 0.15.
P59F showed an abundance fitness of -0.353 ± 0.22.
P59V gave an abundance fitness of -0.099 ± 0.068.
